Assay results published in patent US20200190159A1.

Key:
[1] = target: recombinant tetranectin (TN) (human) (UniProt P05452); assay: SPR (BIAcore), TN immobilized on CM5 chip, HMGB1 as analyte at various concentrations; apparent Kd
[2] = target: recombinant tetranectin (TN) (human) (UniProt P05452); assay: BIAcore SPR; recombinant TN immobilized on the sensor chip, HMGB1 as analyte at 31, 62, 125, 250, 500 and 1000 nM

Sequence of recombinant tetranectin (TN) (human) (P05452 22-202): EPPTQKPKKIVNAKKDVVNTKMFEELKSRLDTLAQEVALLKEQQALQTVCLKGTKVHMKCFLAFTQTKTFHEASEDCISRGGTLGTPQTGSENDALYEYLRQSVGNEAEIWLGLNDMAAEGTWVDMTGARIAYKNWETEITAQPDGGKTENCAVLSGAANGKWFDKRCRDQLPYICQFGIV

Kd [1]: 570 nM
Kd [2]: 520 nM
Substance: high mobility group box-1 (HMGB1) protein
